In article PMC3563690 (The Journal of Cell Biology, 2013):
One block for each molecule: values may come before it.

Experiments:
Experiment in all cases: immunostaining of cells or tissue
[1] = target: T1, HA-tagged mouse MDGA2 (mouse)
T1 sequence (P60755 whole entry, looked up): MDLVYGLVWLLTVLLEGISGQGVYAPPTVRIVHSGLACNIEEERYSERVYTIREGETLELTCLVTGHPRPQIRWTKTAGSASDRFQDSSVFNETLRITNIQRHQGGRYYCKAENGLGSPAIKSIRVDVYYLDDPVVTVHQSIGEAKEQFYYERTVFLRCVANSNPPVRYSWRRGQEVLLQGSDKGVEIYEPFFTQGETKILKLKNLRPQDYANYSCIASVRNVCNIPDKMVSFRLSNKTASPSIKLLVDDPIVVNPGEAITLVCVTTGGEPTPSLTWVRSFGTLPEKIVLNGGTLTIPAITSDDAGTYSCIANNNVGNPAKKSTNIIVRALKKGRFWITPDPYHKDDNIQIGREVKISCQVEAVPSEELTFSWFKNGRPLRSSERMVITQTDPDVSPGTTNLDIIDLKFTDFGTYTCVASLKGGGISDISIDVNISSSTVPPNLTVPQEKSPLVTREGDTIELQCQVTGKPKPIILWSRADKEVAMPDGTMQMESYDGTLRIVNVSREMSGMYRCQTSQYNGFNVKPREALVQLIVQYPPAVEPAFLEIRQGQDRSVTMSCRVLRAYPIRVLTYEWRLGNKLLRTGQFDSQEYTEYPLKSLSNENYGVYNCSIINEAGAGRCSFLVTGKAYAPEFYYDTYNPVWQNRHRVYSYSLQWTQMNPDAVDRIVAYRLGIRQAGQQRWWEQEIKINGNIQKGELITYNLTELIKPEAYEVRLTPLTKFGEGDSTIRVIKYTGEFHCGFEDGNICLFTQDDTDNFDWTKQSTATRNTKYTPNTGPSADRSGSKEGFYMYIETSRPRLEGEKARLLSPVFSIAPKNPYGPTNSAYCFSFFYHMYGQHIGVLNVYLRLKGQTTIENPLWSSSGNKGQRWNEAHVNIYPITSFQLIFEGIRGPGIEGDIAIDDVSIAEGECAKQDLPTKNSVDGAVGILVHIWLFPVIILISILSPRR

[2] = target: HA-neurexin1β(−S4) (mouse | rat)
[3] = target: T2, extracellular HA-tagged rat MDGA1 (rat, UniProt P85171 19-933)
T2 sequence (looked up): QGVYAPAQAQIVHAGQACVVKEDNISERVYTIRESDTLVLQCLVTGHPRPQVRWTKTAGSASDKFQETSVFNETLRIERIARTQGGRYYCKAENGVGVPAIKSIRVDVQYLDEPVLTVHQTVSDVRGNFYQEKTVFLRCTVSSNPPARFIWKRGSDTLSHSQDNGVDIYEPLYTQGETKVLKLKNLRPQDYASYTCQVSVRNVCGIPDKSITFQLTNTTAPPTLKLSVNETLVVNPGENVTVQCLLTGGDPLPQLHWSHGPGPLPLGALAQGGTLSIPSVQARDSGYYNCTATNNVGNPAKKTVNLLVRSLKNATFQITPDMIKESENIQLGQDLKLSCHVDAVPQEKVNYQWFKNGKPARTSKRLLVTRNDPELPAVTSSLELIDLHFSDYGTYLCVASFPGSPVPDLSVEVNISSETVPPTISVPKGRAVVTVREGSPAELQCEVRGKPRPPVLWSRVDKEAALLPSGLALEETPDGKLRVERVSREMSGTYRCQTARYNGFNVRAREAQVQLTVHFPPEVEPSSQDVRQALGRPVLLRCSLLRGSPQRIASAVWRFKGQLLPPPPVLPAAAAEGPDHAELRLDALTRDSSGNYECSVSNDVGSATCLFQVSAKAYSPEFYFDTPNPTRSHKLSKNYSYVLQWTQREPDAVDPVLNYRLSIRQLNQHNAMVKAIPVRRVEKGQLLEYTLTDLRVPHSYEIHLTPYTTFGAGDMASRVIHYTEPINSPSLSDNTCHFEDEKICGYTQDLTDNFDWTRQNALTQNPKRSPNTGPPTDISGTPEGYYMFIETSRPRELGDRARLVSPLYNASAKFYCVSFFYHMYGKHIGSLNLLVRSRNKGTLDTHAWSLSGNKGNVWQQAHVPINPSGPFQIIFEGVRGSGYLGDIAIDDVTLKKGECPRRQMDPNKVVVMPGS

Kd [1]: 45.9 nM | Kd [2]: 8.4 nM
Molecule: soluble neuroligin-2–Fc fusion protein (from UniProt Q69ZK9 15-676)

Kd [3]: 7.3 nM
B1: soluble neuroligin-2–Fc fusion protein (Fc fusion, UniProt Q69ZK9 15-676, looked up)
chain: QRGGGGPGGGAPGGPGLGLGSLGEERFPVVNTAYGRVRGVRRELNNEILGPVVQFLGVPYATPPLGARRFQPPEAPASWPGVRNATTLPPACPQNLHGALPAIMLPVWFTDNLEAAATYVQNQSEDCLYLNLYVPTEDGPLTKKRDEATLNPPDTDIRDSGKKPVMLFLHGGSYMEGTGNMFDGSVLAAYGNVIVVTLNYRLGVLGFLSTGDQAAKGNYGLLDQIQALRWLSENIAHFGGDPERITIFGSGAGASCVNLLILSHHSEGLFQKAIAQSGTAISSWSVNYQPLKYTRLLAAKVGCDREDSTEAVECLRRKSSRELVDQDVQPARYHIAFGPVVDGDVVPDDPEILMQQGEFLNYDMLIGVNQGEGLKFVEDSAESEDGVSASAFDFTVSNFVDNLYGYPEGKDVLRETIKFMYTDWADRDNGEMRRKTLLALFTDHQWVAPAVATAKLHADYQSPVYFYTFYHHCQAEGRPEWADAAHGDELPYVFGVPMVGATDLFPCNFSKNDVMLSAVVMTYWTNFAKTGDPNQPVPQDTKFIHTKPNRFEEVVWSKFNSKEKQYLHIGLKPRVRDNYRANKVAFWLELVPHLHNLHTELFTTTTRLPPYATRWPPRTPGPGTSGTRRPPPPATLPPESDIDLGPRAYDRFPGDSRDYSTE
